Earlier results on one substance are cited in PMC7764831.

For the data set, the target named is p53 (Homo sapiens) (UniProt P04637).
Chain of p53 (Homo sapiens) (P04637 whole entry): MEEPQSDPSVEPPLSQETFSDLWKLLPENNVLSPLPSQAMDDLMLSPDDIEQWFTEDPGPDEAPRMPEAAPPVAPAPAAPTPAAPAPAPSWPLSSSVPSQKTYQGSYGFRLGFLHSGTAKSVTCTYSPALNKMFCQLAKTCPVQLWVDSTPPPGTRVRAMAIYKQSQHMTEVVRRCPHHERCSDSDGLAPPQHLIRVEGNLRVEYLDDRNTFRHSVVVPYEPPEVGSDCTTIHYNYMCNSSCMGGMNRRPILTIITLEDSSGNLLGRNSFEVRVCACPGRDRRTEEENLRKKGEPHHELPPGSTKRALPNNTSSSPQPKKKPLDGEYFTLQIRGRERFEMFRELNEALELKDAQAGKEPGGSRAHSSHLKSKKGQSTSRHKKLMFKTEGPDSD

Chain of Azurin (P00282 21-148): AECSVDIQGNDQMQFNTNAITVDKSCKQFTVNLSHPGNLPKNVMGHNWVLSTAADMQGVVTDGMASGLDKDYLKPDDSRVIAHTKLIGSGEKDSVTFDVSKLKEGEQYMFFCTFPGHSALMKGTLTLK

Take Azurin (from UniProt P00282): the Kd – broadly, the concentration at which binding is half-saturated – is 6 µM.
